{
  "source": "paper PMC10764958",
  "target": "SARS2-NP SIM1A (poly-SUMOylated) (SARS-CoV-2) (UniProt P0DTC9)",
  "test": "MST",
  "conditions": "MST: PBS with 0.05% Tween, room temperature",
  "data": [
    {"sequence": "CACUCGCUAUGUCGAUAACAACUUCUGUGGCCCUGAUGGCUACCCUCUUGAGUGCAUUAAAGA [Cy5-RNA (SARS-CoV-2 RNA)]", "values": [
      {"measurement": "Kd", "result": 2.71, "unit": "nM"}
    ]}
  ]
}
